The target in one assay is Factor IXα (human) (UniProt P00740). Kind of assay: ELISA affinity determination (Kim et al.). (In general: In an ELISA, binding on a coated surface is turned into a signal by an enzyme label.)
Assay [1] concerns the target intact human Factor IX (human) (UniProt P00740). Description: ELISA affinity determination (Kim et al.).
Assay [2] shares this target. Description: affinity chromatography on CLB-FIX D4-Sepharose, clotting activity; 73 ml.
The target of assay [3] is Factor II (UniProt P00734). Description: affinity chromatography on CLB-FIX D4-Sepharose; 440 ml.
In assay [4] the target is Factor X (UniProt P00742). The assay is described as above.
Sequence of UniProt P00742 (P00742 41-488 limits assumed): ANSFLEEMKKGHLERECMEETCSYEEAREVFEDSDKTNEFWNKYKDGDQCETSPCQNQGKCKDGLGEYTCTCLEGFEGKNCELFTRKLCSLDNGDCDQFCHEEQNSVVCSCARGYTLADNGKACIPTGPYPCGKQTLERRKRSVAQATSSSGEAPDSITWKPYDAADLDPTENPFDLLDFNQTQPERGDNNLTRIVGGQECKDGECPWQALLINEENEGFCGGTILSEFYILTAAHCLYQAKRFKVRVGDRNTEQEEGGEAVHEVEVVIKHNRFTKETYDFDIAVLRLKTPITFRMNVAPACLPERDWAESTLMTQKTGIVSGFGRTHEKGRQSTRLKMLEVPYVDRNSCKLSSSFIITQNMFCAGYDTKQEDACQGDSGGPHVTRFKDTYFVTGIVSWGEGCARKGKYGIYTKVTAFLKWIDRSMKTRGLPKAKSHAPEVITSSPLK
The target in assay [5] is intact human Factor IX (human) (UniProt P00740). Kind of assay: CLB-FIX D4 affinity chromatography, purified Factor IX applied.
Assay [6] deals with Factor II (UniProt P00734). Description: affinity chromatography on CLB-FIX D4-Sepharose; 73 ml.
For assay [7], the target named is Factor X (UniProt P00742). Described as above.
Assay [8] addresses intact human Factor IX (human) (UniProt P00740). Description: affinity chromatography of prothrombin complex concentrate, elution with 2 M KSCN.
For assay [9], the target named is Factor IXaβ (human) (UniProt P00740). Description: CLB-FIX D4 affinity chromatography, Factor IXα mixture applied.
The target in assay [10] is intact human Factor IX (human) (UniProt P00740). The assay is described as above.
Assay [11] has the same target. Description: affinity chromatography on CLB-FIX D4-Sepharose, clotting activity; 440 ml.
Assay [12] has the same target. Kind of assay: cell-based or functional assay.
For assay [13], the target named is Factor IXaβ (human) (UniProt P00740). Description: CLB-FIX D4 affinity chromatography, Factor IXaβ mixture applied.
Assay [14] has as its target intact human Factor IX (human) (UniProt P00740). Described as above.

The text below walks through data of USRE38202.

Usually Kd stands for the free concentration of one partner at which half of the binding sites on the other are occupied at equilibrium, for simple one-to-one binding. Low values mean tighter binding, high ones weaker binding. In the assay with Factor IXα (human), monoclonal antibody CLB-FIX D4 had a dissociation constant (Kd) of 0.3 nM and a fold alteration of affinity (Factor IXα against intact Factor IX) above 4 fold. Moreover, in assay [1], the Kd came to 1.2 nM. The substance further came in with an FIX in eluate (U/ml) in [2] of 98.7 U/ml. In the assay with Factor II [3], this substance gave an FII in flow through (U/ml) of 49.7 U/ml. For the same substance, in the assay with Factor X [4], the FX in flow through (U/ml) came to 51 U/ml. In assay [5], this substance gave an Intact FIX eluted of 588 µg, an Intact FIX unbound of 23 µg, a Protein eluted of 580 µg and a Protein unbound of 20 µg. Further, in the assay with Factor II [6], the FII in eluate (U/ml) is below 0.008 U/ml. This substance also yielded an FX in eluate (U/ml) in the assay with Factor X [7] below 0.003 U/ml. Moreover, the Factor IX activity recovered in the eluate in assay [8] is 67%. Also, in the assay with Factor IXaβ (human) [9], the FIXaβ eluted is below 0.001 µg and the FIXaβ unbound amounted to 7 µg. In addition, in assay [10], the Intact FIX eluted was determined as 85 µg. For the same substance, the FIX in flow through (U/ml) in [11] turned out to be 10.4 U/ml. This substance registered a Factor IX clotting activity (one stage coagulation assay), residual activity after incubation with antibody in assay [12] above 90%. Besides, in the assay with Factor IXaβ (human) [13], the FIXaβ eluted is below 0.001 µg and the FIXaβ unbound came to 550 µg. For the same substance, the Intact FIX eluted in [14] turned out to be 50 µg.
